9 molecules from publication PMC5897774, “Mitotic spindle association of TACC3 requires Aurora‐A‐dependent stabilization of a cryptic α‐helix” (The EMBO Journal, 2018) can be followed below.

Non-standard residues stand in square brackets, D forms with d. No end group written: not given here. pS = N[C@@H](COP(=O)(O)O)C(=O)O; FAM = fluorescein label A value given as a limit tells only on which side of the number the result lay.

The labels stand for the following.
T1: FAM‐phospho‐TACC3^CID Y560A (human, UniProt Q9Y6A5 549-570, Y560A, fluorescein (FAM) label; phosphoserine at 558)
T1 construct: TACC3, human, aa549–570 (TACC3^CID); source: FAM‐labelled peptide (FAM‐TACC3 peptides: PPR, Cambridge; Almac, Craigavon)
T1 peptide (looked up): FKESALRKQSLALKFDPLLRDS

T2: FAM‐phospho‐TACC3^CID F563A (human, UniProt Q9Y6A5 549-570, F563A, fluorescein (FAM) label; phosphoserine at 558)
T2 construct: TACC3, human, aa549–570 (TACC3^CID); source: FAM‐labelled peptide (FAM‐TACC3 peptides: PPR, Cambridge; Almac, Craigavon)
T2 peptide (looked up): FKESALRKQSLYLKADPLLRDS

T3: FAM‐TACC3 549–570 phosphorylated on S558 (FAM‐phospho‐TACC3^CID) (human, UniProt Q9Y6A5 549-570, fluorescein (FAM) label; phosphoserine at 558)
T3 construct: TACC3, human, aa549–570 (TACC3^CID); also called pTACC3^CID; FAM‐labelled pTACC3^CID; source: FAM‐labelled peptide (FAM‐TACC3 peptides: PPR, Cambridge; Almac, Craigavon)
T3 peptide (looked up): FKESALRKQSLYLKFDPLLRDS

T4: FAM‐phospho‐TACC3^CID L559A (human, UniProt Q9Y6A5 549-570, L559A, fluorescein (FAM) label; phosphoserine at 558)
T4 construct: TACC3, human, aa549–570 (TACC3^CID); source: FAM‐labelled peptide (FAM‐TACC3 peptides: PPR, Cambridge; Almac, Craigavon)
T4 peptide (looked up): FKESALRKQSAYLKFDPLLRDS

T5: TACC3 552-567 pS558 (Homo sapiens, also: FAM-labelled, place not given here)
T5 chain: SALRKQ[pS]LYLKFDPLL

T6: TACC3 546-573 pS558 (Homo sapiens, phospho-Ser558; FAM-labelled)
T6 chain: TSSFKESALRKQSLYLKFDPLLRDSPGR

T7: CHC 1–574 (clathrin heavy chain propeller‐ankle fragment) (UniProt Q00610 1-574)
T7 chain: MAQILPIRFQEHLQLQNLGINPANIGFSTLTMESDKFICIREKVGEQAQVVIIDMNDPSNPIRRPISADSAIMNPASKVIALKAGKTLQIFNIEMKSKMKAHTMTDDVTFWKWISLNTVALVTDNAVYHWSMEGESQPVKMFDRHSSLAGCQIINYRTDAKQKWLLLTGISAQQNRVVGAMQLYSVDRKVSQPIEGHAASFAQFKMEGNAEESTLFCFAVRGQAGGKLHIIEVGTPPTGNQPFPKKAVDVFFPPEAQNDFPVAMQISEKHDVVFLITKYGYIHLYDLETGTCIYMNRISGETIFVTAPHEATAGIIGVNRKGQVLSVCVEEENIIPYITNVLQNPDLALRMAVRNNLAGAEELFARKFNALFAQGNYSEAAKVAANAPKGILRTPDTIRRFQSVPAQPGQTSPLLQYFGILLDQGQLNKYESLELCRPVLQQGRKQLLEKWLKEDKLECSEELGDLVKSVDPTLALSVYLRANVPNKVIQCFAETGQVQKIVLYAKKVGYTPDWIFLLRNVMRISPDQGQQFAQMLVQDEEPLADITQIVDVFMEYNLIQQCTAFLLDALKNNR

T8: Aurora‐A 122–403 D274N (human, UniProt O14965 122-403, D274N)
T8 construct: also called Aurora‐A^KD D274N; source: expressed and purified as described in previous work (Burgess et al, 2015)
T8 sequence (looked up): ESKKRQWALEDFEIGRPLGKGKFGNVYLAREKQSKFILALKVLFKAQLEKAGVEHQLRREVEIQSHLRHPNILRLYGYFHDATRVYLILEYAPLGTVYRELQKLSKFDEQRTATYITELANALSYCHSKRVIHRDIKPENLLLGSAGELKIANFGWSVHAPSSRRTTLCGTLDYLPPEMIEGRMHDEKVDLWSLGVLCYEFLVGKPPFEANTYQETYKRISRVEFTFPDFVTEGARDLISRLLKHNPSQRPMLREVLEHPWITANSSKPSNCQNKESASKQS

B1: CHC 1–574 (clathrin heavy chain propeller‐ankle fragment) (domain or fragment, UniProt Q00610 1-574, looked up)
chain: T7 chain
notes: source: modified pGEX vector
B2: FAM‐non‐phosphorylated TACC3^CID (aa549–570) (peptide, UniProt Q9Y6A5 549-570, looked up)
peptide: {FAM}-FKESALRKQSLYLKFDPLLRDS
notes: TACC3, human, aa549–570 (TACC3^CID); also called unphosphorylated TACC3^CID peptide; S558; source: FAM‐labelled peptide (FAM‐TACC3 peptides: PPR, Cambridge; Almac, Craigavon)
B3: ^13C^15N TACC3 519–540 (domain or fragment, human, UniProt Q9Y6A5 519-540, looked up)
chain: ELKEESFRDPAEVLGTGAEVDY
modifications: also: 13C, 15N labelled
notes: TACC3, human, aa519–540 (stop codon at residue 541 of pETM6T1 TACC3 519–563); source: expressed and purified as described for 13C15N‐TACC3 519–563 (Burgess et al, 2015)

Series [1] is described as follows: NMR chemical shift index analysis of TACC3 549–570 helicity. The class given is physicochemical. The conditions noted are these: 2 mM peptide, 20 mM Tris pH 7.2, 50 mM NaCl, 290 K, αH and αC secondary shifts. An excerpt: We used NMR spectroscopy to determine the extent to which these α‐helices are present in TACC3 in the absence of binding partners in solution. Chemical shift index (CSI) plots were created for phosphorylated and unphosphorylated TACC3^CID following standard methods (Fig 7D and E; Wishart & Sykes, 1994). In addition to calculating α‐proton chemical shifts we also measured secondary chemical shifts for α‐carbons. After the type of amino acid, the main contribution to chemical shifts of α‐carbons is the ψ angle and thus the backbone conformation. Proximity of charges or aromatic side chains which can strongly affect proton chemical shifts has virtually no effect on the chemical shifts of α‐carbons which makes them very robust probes of backbone conformation. […] We concluded that phosphorylation of S558 increases the propensity for α‐helix formation in TACC3, and we examined the structure to identify the mechanism.
For analysis of TACC3 549–570 helicity, synthetic peptides were weighed in to give a sample concentration of 2 mM in 20 mM Tris pH 7.2 and 50 mM NaCl. Spectra were recorded at a temperature of 290 K on a Bruker Avance‐Neo 600 MHz spectrometer equipped with a prodigy cryoprobe. Peptides were assigned using 2D NOESY, TOCSY and 13C HSQC spectra recorded with watergate and gradient coherence selection, respectively. […]

The target in series [2] is WT Aurora‐A (of the FP assays) (human) (UniProt O14965).
For series [3], the target named is FAM‐TACC3 522–536 phosphorylated on T534 (human) (UniProt Q9Y6A5). Kind of series: fluorescence polarisation; FAM‐TACC3 peptides with Aurora‐A; performed as in Richards et al, 2016; triplicate; one‐site total binding fit; Kd ± SE. (Polarisation of emitted light reports the rotation of a fluorescent probe.)
The target in series [4] is FAM‐TACC3 522–536 (WT site 1 peptide) (human) (UniProt Q9Y6A5). The series is described as above.
Series [5] deals with FAM‐WT TACC3 519–570 (human) (UniProt Q9Y6A5). The description is as above.
Series [6] addresses FAM‐TACC3 522–536 R526A (human) (UniProt Q9Y6A5). Described as above.
Series [7] deals with FAM‐TACC3 522–536 F525A (human) (UniProt Q9Y6A5). The series is described as above.
The target of series [8] is FAM‐TACC3 522–536 L532A (human) (UniProt Q9Y6A5). Described as above.
Series [9] addresses T1, FAM‐phospho‐TACC3^CID Y560A. Briefly: fluorescence polarisation; CHC proteins serially diluted in 20 mM HEPES–NaOH pH 7.5, 200 mM NaCl, 5 mM DTT; 50 nM FAM‐labelled TACC3 peptide; 30 min at room temperature; read at 25°C. The conditions noted are these: both partners purified.
In series [10] the target is T2, FAM‐phospho‐TACC3^CID F563A. The description is as above. The conditions noted are these: both partners purified.
For series [11], the target named is T3, FAM‐TACC3 549–570 phosphorylated on …. The series is described as above. The conditions noted are these: both partners purified.
Series [12] concerns the target T4, FAM‐phospho‐TACC3^CID L559A. Described as above. The conditions noted are these: both partners purified.
Series [13] concerns the target The R555A mutation alone or in combination with K556A (FAM‐phospho‐TACC3^CID peptides). The description is as above.
For series [14], the target named is T5, TACC3 552-567 pS558. Briefly: FP.
Series [15] has as its target T6, TACC3 546-573 pS558. Kind of series: FP.
The target in series [16] is B1. Briefly: fluorescence polarisation; CHC proteins serially diluted in 20 mM HEPES–NaOH pH 7.5, 200 mM NaCl, 5 mM DTT; 50 nM FAM‐labelled TACC3 peptide; 30 min at room temperature; read at 25°C. The conditions noted are these: both partners purified.
Series [17] addresses T7, CHC 1–574 (clathrin heavy chain …). Briefly: FP.
Series [18] deals with T8, Aurora‐A 122–403 D274N. Briefly: NMR titration; 13C/15N‐labelled TACC3 peptide (300 μM) alone and in complex with Aurora‐A 122–403 D274N; 20 mM KPO4 pH 7.0, 50 mM NaCl, 1 mM DTT; 298 K; chemical shift perturbation. The conditions noted are these: both partners purified.
The target in series [19] is T7, CHC 1–574 (clathrin heavy chain …). Briefly: FP.

As to “FKESALRKQSLYLKFDPLLRDS [phosphorylated peptide, synthetic TACC3 549–570 peptide phosphorylated at S558, used for NMR]”, the “propensity for helix formation (CSI)” value in series [1] is “much higher propensity”.

Take “FKESALRKQSLYLKFDPLLRDS [unphosphorylated peptide, synthetic TACC3 549–570 peptide, unphosphorylated, used for NMR]”: the “propensity for helix formation (CSI)” value in series [1] was “tendency towards helix formation”.

Turning to “TACC3 519–563‐H6c (WT TACC3^N‐ACIDH6c) (from UniProt Q9Y6A5 519-563) (domain or fragment)”, the 32P‐ATP kinase assay with MBP as substrate: stimulation of Aurora‐A activity in series [2] is 8 fold.

Regarding “WT Aurora‐A (of the FP assays) (from UniProt O14965 122-403) (domain or fragment)”, the Kd (usually a measure of binding affinity in units of concentration) is 14 µM in series [3]; 20 µM in series [4]; 3 µM in series [5]; 49 µM in series [6]; 2300 µM in [7]; 251 µM in [8].

Consider B1, for which the “fold reduction in affinity against WT” value was not below 4 fold in series [9], not below 4 fold in series [10], not below 4 fold in series [12] and 4 to 5 fold in [13]. Also, in [11], the “fold increase in affinity against non‐phosphorylated TACC3^CID” value was determined as 4 fold. Besides, the Kd was 48 µM in series [14] and 39 µM in [15].

In [16], B2 gave a Kd of 216 µM.

{FAM}-FKESALAAQ[pS]LYLKFDPLLRDS [FAM‐phospho‐TACC3^CID R555A, K556A]: in series [17], the Kd came to 209 µM.

Turning to B3, the binding result in series [18] is reported as “binds”.

{FAM}-FKESALRKQ[pS]LYLKFDPAARDS [FAM‐phospho‐TACC3^CID L566A, L567A] came in with a Kd in [19] of 345 µM.
